± gives the standard deviation.
Test: protein stability index of a GFP-peptide fusion (GPS, HEK-293T) (PSI 1-6); higher = more stable
[1] = treatment: DMSO, c terminus: native
[2] = treatment: MLN4924 1 uM, 8 h, c terminus: native
[3] = treatment: DMSO, c terminus: a fixed tail appended
[4] = treatment: MLN4924 1 uM, 8 h, c terminus: a fixed tail appended
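Also: 24-mer peptide tiles fused after GFP, lentivirally expressed, FACS-sorted into six equal bins by GFP/DsRed ratio, decoded by Illumina sequencing, PSI is the read-weighted mean bin number.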

Row | Sequence | protein stability index [1] | protein stability index [2] | protein stability index [3] | protein stability index [4]
1 | FHINQTLREAHFHSLQHRGRPLT [FAM104A] | 2.3 ± 0.45 | 2.2 ± 0.29 | – | –
2 | FNMMEQKKRVSMILQSPAFCEELE [ADD1] | – | – | 3.27 ± 0.088 | 3.4 ± 0.11
3 | QNKAQRQKDLIMKVENLTLKNHFQ [TAF7L] | – | – | 3.08 ± 0.28 | 3.1 ± 0.13
4 | YTYEKLLWTTSRVLKVLSVCSSNK [CTNNB1] | – | – | 2.47 ± 0.36 | 2.22 ± 0.43
5 | FRALKRPLQFLGLFENSLCRLTHI [ZER1] | – | – | 2.62 ± 0.4 | 2.46 ± 0.54
6 | LKEPLHKALQMLLSQPVTYQAFRE [BCL2L13] | – | – | 2.76 ± 0.085 | 2.77 ± 0.4
7 | RYHLQQNVHFKEETVKLFICELVM [STK32A] | – | – | 2.35 ± 0.41 | 2.46 ± 0.26
8 | VAEKVVVITKHNDDEQYAWESSAG [HSP90AB1] | – | – | 4.53 ± 0.11 | 4.34 ± 0.29
9 | DGRQLRKMLRKEAAARCVVLDCRP [DUSP5] | – | – | 2.69 ± 0.24 | 3.07 ± 0.23
10 | FFKGGGSSKSRAAPSPQEALVRLR [CHMP4C] | – | – | 3.26 ± 0.053 | 3.33 ± 0.052
11 | RPRQRQRVYPKCTWLTTPKSTWPR [TCF25] | – | – | 3.17 ± 0.43 | 3.23 ± 0.2
12 | VSRMRTQRAFSIQTPEQYYFCYKA [PTPN9] | – | – | 2.56 ± 0.18 | 2.43 ± 0.27
13 | HKRISAFRALQHSYLHKDEGNPE [CDK4] | 4.15 ± 0.26 | 4.04 ± 0.47 | – | –
14 | ISDFGRQQLLPPFPSLHQSLPQNQ [EHMT1] | – | – | 3.45 ± 0.14 | 3.28 ± 0.23
15 | LLLLLPTLQSITWQMIEQIQFIKL [HNF4A] | – | – | 3.58 ± 0.39 | 3.28 ± 0.28
16 | WHPAENIIAIAATNNLYIFQDKVN [PPP2R2C] | – | – | 2.6 ± 0.48 | 2.44 ± 0.31
17 | AVNQEAMNNAQRIEKWVILEKDFS [ACSBG2] | – | – | 3.16 ± 0.31 | 3.47 ± 0.46
18 | WNDLRPKLSCLFAGPHSTLTPPCS [SNX8] | – | – | 2.27 ± 0.29 | 2.27 ± 0.39
19 | EFKADAQLLLHNTVIFYGADSEQA [ZMYND11] | – | – | 3.06 ± 0.32 | 3.32 ± 0.23
20 | AEEKEQLLHNDEYQETMVESTFMY [USP39] | – | – | 4.69 ± 0.27 | 4.8 ± 0.2
21 | ILPKELQGWVREHCPESGEEAVIL [ZSCAN9] | – | – | 2.74 ± 0.35 | 2.95 ± 0.47
22 | TKVVYLASETFNYSAIDRVKSRGK [PI4K2A] | – | – | 2.85 ± 0.18 | 3.17 ± 0.31
23 | FEGMAFLETEQGKPFVSVFRHLRL [GMCL1] | – | – | 2.66 ± 0.58 | 2.25 ± 0.31

Row | Sequence | protein stability index [1] | protein stability index [2] | protein stability index [3] | protein stability index [4]
24 | IQSWDINSRRNINYRSFEPILRLL [ZER1] | – | – | 2.31 ± 0.099 | 2.41 ± 0.21
25 | IGSCVTNPCGPRSRCGPCNTFGY [KRT33B] | 2.9 ± 0.28 | 2.97 ± 0.34 | – | –
26 | DSGQYWPSVYHAMPSPCSCMSFNP [WDFY2] | – | – | 2.37 ± 0.19 | 2.31 ± 0.44
27 | LHVNGESLEMDSDEDDSEELEEDD [EHMT1] | – | – | 5.41 ± 0.26 | 5.28 ± 0.12
28 | VQTSVIGSNGYILNKPALQAQPLR [EHMT1] | – | – | 3.06 ± 0.34 | 3.17 ± 0.13
29 | VIDGATALWCAAGAGHFEVVKLLV [FEM1B] | – | – | 2.49 ± 0.89 | 2.36 ± 0.35
30 | PDQLPQNNTLVALPIVAIENILSF [FBXO28] | – | – | 2.34 ± 0.24 | 2.38 ± 0.27
31 | ETTESQQNGEEGTSTPEDKESGQE [SMARCE1] | – | – | 5.61 ± 0.18 | 5.23 ± 0.17
32 | LETEQGKPFVSVFRHLRLQYIISD [GMCL1] | – | – | 2.21 ± 0.56 | 2.05 ± 0.33
33 | GRKPERRRLKTTRLKEYTIKSHSS [DAPK3] | – | – | 3.92 ± 0.17 | 4.06 ± 0.29
34 | PEVILELGWAQPCDVWSIGCILFE [CLK3] | – | – | 2.63 ± 0.5 | 3.55 ± 1
35 | RSVSEPRDQHPQPSLGDSLESIPS [RTN2] | – | – | 5.34 ± 0.41 | 5.17 ± 0.24
36 | VRSTETVERDNMEEDNVEESEEEG [HDAC6] | – | – | 5.57 ± 0.45 | 5.72 ± 0.24
37 | RQARKKGRHLELANQKLSEKLAAG [CCDC3] | – | – | 4.777 ± 0.006 | –
38 | DDSKFPIEDTPLVPVSFIFIFTFV [PCDHGA10] | – | – | 3.32 ± 0.36 | 2.09 ± 0.062
39 | RVYHGWLFEGLGRDKAEELLQLPD [SLA] | – | – | 3.01 ± 0.53 | 2.82 ± 0.57
40 | EAKSAQPADGWKGERPRSEEDNEL [GCH1] | – | – | 5.56 ± 0.098 | 5.35 ± 0.16
41 | NGLALGPDLNILEDSAESRPWRAG [PSD2] | – | – | 4 ± 0.14 | 4.24 ± 0.38
42 | RRLKQAKEEAQAEIEQYRLQREKE [ATP6V1G1] | – | – | 5.47 ± 0.33 | 5.38 ± 0.25
43 | PVPGKTLHLPIMGVVMKVRIPTCH [DENND6A] | – | – | 2.43 ± 0.72 | 2.45 ± 0.38
44 | SDFQIEPGFYATYESTLFEDQVPA [MIA2] | – | – | 3.92 ± 0.27 | 3.7 ± 0.31
45 | FHYLVFDLVTGGELFEDIVAREYY [CAMK2B] | – | – | 3.21 ± 0.4 | 3.05 ± 1
46 | EQLSGAGYRVSAALEEADKMFLRT [EID1] | – | – | 3.72 ± 0.22 | 4.1 ± 0.43

Row | Sequence | protein stability index [1] | protein stability index [2] | protein stability index [3] | protein stability index [4]
47 | FQNAERAFKAAALIQRWYRRYVAR [PPEF2] | – | – | – | 5.54 ± 0.23
48 | NKLQTLSPSHKGIAAPHAGANVKP [ZC2HC1A] | – | – | 4.35 ± 0.16 | 4.457 ± 0.035
49 | WYDMFRDAAAILLDEQNKRPCRKF [ZMAT5] | – | – | 2.35 ± 0.22 | 2.33 ± 0.44
50 | CCIDWTHVTDPLIGCKKPVSASGK [SMG5] | – | – | 3.05 ± 0.21 | 3.09 ± 0.18
51 | YIATQGSLPETFGDFWRMIWEQRS [PTPRD] | – | – | 2.21 ± 0.21 | 2.5 ± 0.55
52 | LKEGMLMKIKQDRASRTYELQNQL [FSD1] | – | – | 3.05 ± 0.35 | 3.39 ± 0.19
53 | WEEAAPGRAVEHAMFLGDAAAHWY [MYORG] | – | – | 3.05 ± 0.47 | 3.15 ± 0.22
54 | PLIKATVGLIRNLALCPANHAPLR [CTNNB1] | – | – | 2.39 ± 0.47 | 2.55 ± 0.43
55 | TPPLKNVRKKRFRKTQKKVPDVKE [TAF7L] | – | – | 4.84 ± 0.37 | 4.73 ± 0.22
56 | PDSVPSLQNMGLLLDKLAKENQDI [PBXIP1] | – | – | 4.48 ± 0.18 | 4.42 ± 0.15
57 | NLLISLTFLTVTDLIGLPWVCFIY [SLC2A12] | – | – | 3.36 ± 0.45 | 3.19 ± 0.63
58 | LVLLRQMLLELTRRGQEPLSALLQ [BCL2L13] | – | – | 2.37 ± 0.22 | 2.62 ± 0.48
59 | KKFLTLGSKFRYSGRTQAQTRRAS [EPB41L3] | – | – | 3.27 ± 0.61 | 3.49 ± 0.41
60 | EDQHRLYQQIKAGAYDFPSPEWDT [CAMK2D] | – | – | 4.36 ± 0.26 | 4.42 ± 0.21
61 | MSHKQIYYSDKYDDEEFEYRHVML [CKS1B] | – | – | 2.52 ± 0.17 | 2.66 ± 0.18
62 | QDDLENPMLETASKLLLSGTADGA [ANKRD17] | – | – | 5.14 ± 0.33 | 5.2 ± 0.36
63 | RGTHLWEFIRDILIHPELNEGLMK [ELF3] | – | – | 2.54 ± 0.59 | 2.31 ± 0.42
64 | KYENELALRQSVEADINGLRRVLD [KRT13] | – | – | 3.57 ± 0.17 | 3.65 ± 0.29
65 | YPVVVAESMYGDFQEAMTHLQHKL [TENT5D] | – | – | 2.49 ± 0.15 | 2.81 ± 0.38
66 | LLGAVNFFVSSINTLVTKTMEDTL [ARFIP2] | – | – | 3.13 ± 0.21 | 3.07 ± 0.26
67 | SFGVDEEERVRVLQGVRLSENVVN [CHCHD6] | – | – | 4.39 ± 0.2 | 4.59 ± 0.15
68 | LVARFLEQSSCTMTPDIHELVENI [FAM189A2] | – | – | 2.54 ± 0.55 | 2.37 ± 0.4
69 | VNNDKSISVQELMGCLGVAKEDGK [SMOC2] | – | – | 4.47 ± 0.13 | 4.62 ± 0.19

Row | Sequence | protein stability index [1] | protein stability index [2] | protein stability index [3] | protein stability index [4]
70 | MHHCKRYRSPEPDPYLSYRWKRRR [CLK3] | – | – | 3.49 ± 0.39 | 3.69 ± 0.21
71 | DAPLPGSKAKPKPPKQAQKEQRKQ [TBC1D10A] | – | – | 5.45 ± 0.087 | 5.31 ± 0.18
72 | NISHTKEKKKGKAKKKRLTKADIG [WASL] | – | – | 4.78 ± 0.23 | 4.81 ± 0.26
73 | VPFVRVKREREVDEDSEPEREVRA [USP39] | – | – | 5.15 ± 0.26 | 5.17 ± 0.14
74 | TYVSPPGNEEEESKIFTTLDPASL [DDIT3] | – | – | 4.91 ± 0.26 | 5.08 ± 0.065
75 | ECFMCSDCGLNLKQRGYFFLDERL [PDLIM4] | – | – | 2.26 ± 0.32 | 2.08 ± 0.34
76 | RMIFKLFSQETVMKFVPRYSLVLE [APMAP] | – | – | 2.74 ± 0.55 | 2.51 ± 0.37
77 | SSLFSVEANSSNSQKNEKALTNIQ [C8orf76] | – | – | 4.93 ± 0.2 | 4.73 ± 0.21
78 | TCPQCHRSLILDDRGLRGFPKNRV [TRIM9] | – | – | 2.74 ± 0.22 | 3.16 ± 0.41
79 | GGGVATSPMLIVFHGKYSTINPLW [GLT8D2] | – | – | 3.02 ± 1.3 | 2.36 ± 0.56
80 | SMPCSTDKENGENVGLESKYLKKR [SASS6] | – | – | 4.62 ± 0.4 | 5.08 ± 0.19
81 | GKGFRDRNVTGTPLTGDKDDEEVD [ADAMTSL2] | – | – | 5.59 ± 0.21 | 5.51 ± 0.34
82 | NPRAPVIIYKQTKGGVQNFNKDLV [CEP70] | – | – | 2.52 ± 0.18 | 2.46 ± 0.25
83 | SGRARQQDEEMLELPAPAEVAAKN [MLH1] | – | – | 5.52 ± 0.29 | 5.2 ± 0.17
84 | AWNPEDRSLNVFVKDDDRLTFHRH [SPSB4] | – | – | 3.65 ± 0.27 | 3.76 ± 0.19
85 | ISIVIFCLETLPEFRDDRDLVMAL [KCNA4] | – | – | 3.04 ± 0.81 | 2.84 ± 0.68
86 | LGPLGSTAFLPDSKCLVDDGTGRM [GALNT9] | – | – | 3.89 ± 0.36 | 4.24 ± 0.21
87 | ATLICMAMQASKATKITLSAIYKW [FOXJ1] | – | – | 3.15 ± 0.48 | 2.92 ± 0.71
88 | AVAQTAHLPADSEVTLEANPTSAP [RSAD1] | – | – | 5.4 ± 0.14 | 5.35 ± 0.23
89 | IDYKTTTILLDGRRVRLELWDTSG [RAB40C] | – | – | 2.25 ± 0.61 | 2.21 ± 0.26

— the supplement of paper PMC10567573
